# Counter-ions that a name gives are not always drawn.
# Columns and labels:
# [1] = biological target: T1, sMMO (MMOH + MMOB + MMOR) (Methylosinus sporium, UniProt Q27RN2, Y93A); experiment: NADH consumption at […] nm; type: biochemical; conditions: turnover; propylene and O2 as co-substrates; 1 uM MMOH, 2 equiv. MMOB, 0.5 or 1.0 equiv. MMOR; 25 mM phosphate, 50 mM NaCl, pH 7.0
# T1 construct: gene mmoC; recombinant MMOB and MMOR (39 kDa) from E. coli; with Methane monooxygenase component A alpha chain; Methane monooxygenase component A beta chain; Methane monooxygenase component A gamma chain; Methane monooxygenase regulatory protein B
# [2] = biological target: T2, MMOR (Methylosinus sporium, UniProt Q27RN2, Y95A); experiment: UV-visible spectrum of purified protein, cofactor content; conditions: FAD as purified, calibrated for [2Fe-2S] absorption; FAD/NADH-binding domain
# T2 construct: gene mmoC; full-length reductase (39 kDa), recombinant in E. coli BL21(DE3) from pET30a(+); ferredoxin domain = residues 1-98
# [3] = biological target: T3, MMOR (Methylosinus sporium, UniProt Q27RN2, Y93A); experiment: as above; conditions: FAD as purified, calibrated for [2Fe-2S] absorption; FAD/NADH-binding domain; stoichiometry, not an affinity; extra FAD said to be non-specific
# T3 construct: gene mmoC; full-length reductase (39 kDa), recombinant in E. coli BL21(DE3) from pET30a(+); ferredoxin domain = residues 1-98
# [4] = biological target: Hydroxylase (MMOH) of soluble methane monooxygenase (sMMO) from Methylosinus sporium 5 (Methylosinus sporium 5); experiment: other fluorescence titration; tryptophan quenching (Ex 282 nm, Em 336 nm); MMOH 0.32 uM in the cuvette, MMORs added from 0 to 110 equivalents; 25 mM MOPS, 50 mM NaCl, 1 mM DTT, pH 6.5; fitted with a 1:2 binding model
# T2 sequence (Q27RN2 entry or part of it Y95A): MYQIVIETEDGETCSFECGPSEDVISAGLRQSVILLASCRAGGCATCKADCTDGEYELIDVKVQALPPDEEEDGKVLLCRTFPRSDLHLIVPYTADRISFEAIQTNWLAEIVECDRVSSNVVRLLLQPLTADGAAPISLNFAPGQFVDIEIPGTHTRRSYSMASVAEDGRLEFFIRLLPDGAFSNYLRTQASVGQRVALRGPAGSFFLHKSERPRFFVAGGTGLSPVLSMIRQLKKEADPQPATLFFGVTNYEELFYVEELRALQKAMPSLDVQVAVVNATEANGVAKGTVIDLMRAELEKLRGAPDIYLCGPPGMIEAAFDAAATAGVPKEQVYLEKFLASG
# T1 sequence (Q27RN2 entry or part of it Y93A): as the sequence (Q27RN2 entry or part of it Y95A) above, with Y93A, A95Y counted along it
# T1 sequence (Q27RN4 entry or part of it, stated change not applied, further chain): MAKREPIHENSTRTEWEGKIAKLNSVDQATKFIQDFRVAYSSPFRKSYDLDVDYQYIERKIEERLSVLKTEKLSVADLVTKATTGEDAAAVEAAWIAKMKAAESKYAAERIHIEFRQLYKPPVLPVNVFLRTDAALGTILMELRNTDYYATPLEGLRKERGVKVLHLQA
# T1 sequence (Q27RN6 entry or part of it, stated change not applied, further chain): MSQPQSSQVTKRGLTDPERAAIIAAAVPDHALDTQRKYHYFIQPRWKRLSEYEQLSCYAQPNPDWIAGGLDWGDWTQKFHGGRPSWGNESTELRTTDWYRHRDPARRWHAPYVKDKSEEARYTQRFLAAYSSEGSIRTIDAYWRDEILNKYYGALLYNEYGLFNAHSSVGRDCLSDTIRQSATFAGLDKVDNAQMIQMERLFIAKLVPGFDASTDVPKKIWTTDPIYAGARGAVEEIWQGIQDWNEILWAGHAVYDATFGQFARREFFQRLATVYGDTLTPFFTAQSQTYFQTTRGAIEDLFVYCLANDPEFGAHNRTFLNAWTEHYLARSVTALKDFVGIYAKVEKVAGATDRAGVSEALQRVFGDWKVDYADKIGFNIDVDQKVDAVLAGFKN
# T3 sequence (Q27RN2 entry or part of it Y93A): as the sequence (Q27RN2 entry or part of it Y95A) above, with Y93A, A95Y counted along it
molecule,measurement,setting,value
"NC(=O)C1=CN([C@@H]2O[C@H](COP(=O)(O)OP(=O)(O)OC[C@H]3O[C@@H](n4cnc5c(N)ncnc54)[C@H](O)[C@@H]3O)[C@@H](O)[C@H]2O)C=CC1 [β-nicotinamide adenine dinucleotide, reduced disodium salt hydrate]",NADH consumption at 340 nm,[1],The activity of MMOR-Y93A was dramatically reduced
Cc1cc2nc3c(=O)[nH]c(=O)nc-3n(C[C@H](O)[C@H](O)[C@H](O)COP(=O)(O)OP(=O)(O)OC[C@H]3O[C@@H](n4cnc5c(N)ncnc54)[C@H](O)[C@@H]3O)c2cc1C [flavin adenine dinucleotide],FADs per purified reductase,[2],two irons and two FADs per purified reductase
same,FAD/protein,[3],2.0 FAD/protein
MMOR-Y95A (enzyme),"Kd1 (first site, 1:2 binding model)",[4],0.21 µM
same,"Kd2 (second site, 1:2 binding model)",[4],7.97 µM
MMOR-Y93A (enzyme),"Kd1 (first site, 1:2 binding model)",[4],0.15 µM
same,"Kd2 (second site, 1:2 binding model)",[4],17 µM
